Data published in patent US6635450.

T1: p27 protein, the 27 kD cyclin E-Cdk2 binding protein of Mv1Lu mink epithelial cells (endogenous)
T1 chain: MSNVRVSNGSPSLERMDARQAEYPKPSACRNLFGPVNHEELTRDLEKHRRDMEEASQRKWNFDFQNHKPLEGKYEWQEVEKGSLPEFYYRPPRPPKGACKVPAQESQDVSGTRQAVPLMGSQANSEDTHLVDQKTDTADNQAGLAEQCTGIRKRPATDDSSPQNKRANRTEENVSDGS

T2: recombinant mouse Kip1 with a C-terminal hexahistidine sequence (expressed in BL21(DE3) bacteria from pET21a)
T2 chain: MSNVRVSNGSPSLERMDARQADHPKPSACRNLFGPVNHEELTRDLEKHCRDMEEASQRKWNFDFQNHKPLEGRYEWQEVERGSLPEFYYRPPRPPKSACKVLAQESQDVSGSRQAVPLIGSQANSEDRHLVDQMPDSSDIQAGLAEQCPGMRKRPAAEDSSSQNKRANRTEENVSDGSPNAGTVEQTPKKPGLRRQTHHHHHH

T3: Kip1 (28-79), 52-amino acid peptide with a C-terminal hexahistidine tag
T3 chain: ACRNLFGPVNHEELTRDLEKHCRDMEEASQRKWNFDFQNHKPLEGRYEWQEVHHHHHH

B1: cyclin D2-Cdk4 complex (baculovirus produced, co-infected Sf9 cells) (protein)
chain 1: MELLCCEVDPVRRAVPDRNLLEDRVLQNLLTIEERYLPQCSYFKCVQKDIQPYMRRMVATWMLEVCEEQKCEEEVFPLAMNYLDRFLAGVPTPKTHLQLLGAVCMFLASKLKETIPLTAEKLCIYTDNSVKPQELLEWELVVLGKLKWNLAAVTPHDFIEHILRKLPQQKEKLSLIRKHAQTFIALCATDFKFAMYPPSMIATGSVGAAICGLQQDDEVNTLTCDALTELLAKITHTDVDCLKACQEQIEALLLNSLQQFRQEQHNAGSKSVEDPDQATTPTDVRDVDL
chain 2: MAATRYEPVAEIGVGAYGTVYKARDPHSGHFVALKSVRVPNGGAAGGGLPVSTVREVALLRRLEAFEHPNVVRLMDVCATSRTDRDIKVTLVFEHIDQDLRTYLDKAPPPGLPVETIKDLMRQFLSGLDFLHANCIVHRDLKPENILVTSNGTVKLADFGLARIYSYQMALTPVVVTLWYRAPEVLLQSTYATPVDMWSVGCIFAEMFRRKPLFCGNSEADQLGKIFDLIGLPPEDDWPREVSLPRGAFAPRGPRPVQSVVPEMEESGAQLLLEMLTFNPHKRISAFRALQHSYLHKEESDAE
B2: Cdk4 alone (baculoviral, Sf9 lysate) (protein)
chain: B1 chain 2
B3: cyclin D3-Cdk4 complex (baculoviral, co-infected Sf9 cells) (protein)
chain 1: MELLCCEGTRHAPRAGPDPRLLGDQRVLQSLLRLEERYVPRASYFQCVQKEIKPHMRKMLAYWMLEVCEEQRCEEDVFPLAMNYLDRYLSCVPTRKAQLQLLGTVCLLLASKLRETTPLTIEKLCIYTDQAVAPWQLREWEVLVLGKLKWDLAAVIAHDFLALILHRLSLPSDRQALVKKHAQTFLALCATDYTFAMYPPSMIATGSIGAAVLGLGACSMSADELTELLAGITGTEVDCLRACQEQIEAALRESLREAAQTAPSPVPKAPRGSSSQGPSQTSTPTDVTAIHL
chain 2: B1 chain 2
B4: cyclin D1-Cdk4 complex (baculoviral, co-infected Sf9 cells) (protein)
chain 1: MEHQLLCCEVETIRRAYPDTNLLNDRVLRAMLKTEETCAPSVSYFKCVQKEIVPSMRKIVATWMLEVCEEQKCEEEVFPLAMNYLDRFLSLEPLKKSRLQLLGATCMFVASKMKETIPLTAEKLCIYTDNSIRPEELLQMELLLVNKLKWNLAAMTPHDFIEHFLSKMPEADENKQTIRKHAQTFVALCATDVKFISNPPSMVAAGSVVAAMQGLNLGSPNNFLSCYRTTHFLSRVIKCDPDCLRACQEQIEALLESSLRQAQQNVDPKATEEEGEVEEEAGLACTPTDVRDVDI
chain 2: B1 chain 2

Tests used:
[1] = molecular target: T1, p27 protein, the 27 kD cyclin E-Cdk2 …
[2] = molecular target: T2, recombinant mouse Kip1 with a …
[3] = molecular target: T3, Kip1 (28-79), 52-amino acid peptide …

Protein	activation of Cdk2 by cyclin E in extracts (cyclin E-associated histone H1 kinase activity) [1]	Rb kinase activity (phosphorylation of a GST-Rb fusion product) [2]	Rb phosphorylation [3]	lowering of the cyclin E threshold for Cdk2 activation (cyclin E-associated histone H1 kinase activity) [1]
B1	Addition of cyclin D2-Cdk4 complexes, but neither subunit alone, to extracts from contact inhibited and TGF-β arrested cells allowed cyclin E to activate Cdk2 to a level equivalent to that observed in extracts from proliferating cells	Addition of Kip1 to cyclin E-Cdk2, cyclin A-Cdk2 or cyclin D2-Cdk4 complexes inhibited their ability to phosphorylate a GST-Rb fusion product	inhibited cyclin E-Cdk2 or cyclin D2:Cdk4 less effectively	
B2	Addition of cyclin D2-Cdk4 complexes, but neither subunit alone, to extracts from contact inhibited and TGF-β arrested cells allowed cyclin E to activate Cdk2			
B3				Equal amounts of cyclin Di-Cdk4 and cyclin D3-Cdk4 complexes, as estimated by immunoblotting of Sf9 lysates, were much less effective in lowering the cyclin E threshold for Cdk2 activation
B4				Equal amounts of cyclin Di-Cdk4 and cyclin D3-Cdk4 complexes, as estimated by immunoblotting of Sf9 lysates, were much less effective in lowering the cyclin E threshold for Cdk2 activation
